# Laboratory results published in the RNAGym collection of RNA variant scans (doi:10.1073/pnas.2313332121).
# B1: TPR t1 (parent)
# chain: GACCAAUCUGCCCUCAGAGCUCGAGAACAUCUUCGGAUGCAGAGGAGGCAGGCUUCGGUGGCGCGAUAGCGCCAACGUCCUCAACCUCCAAUGCAUCCCACCACAUGAUGAUGCCUGAAGAGCCUUGGUUUUUUG
# Variants of: B1
# Experiment: polymerase ribozyme fitness, log enrichment relative to wild type (log ratio); higher = more active; in vitro selection for triplet polymerase activity
# Procedure, shortened: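 Mutant libraries of both subunits of a heterodimeric triplet polymerase ribozyme were PCR-built, transcribed, and selected once in triplicate, with frozen incubation at −7 °C and capture of gel-excised extended constructs on streptavidin beads before RT-PCR. Illumina sequencing of input and output libraries was filtered to genotypes with ≥10 input reads and ≥1 read per output. Fitness is the logarithm of genotype enrichment over wild-type enrichment, using inverse-variance-weighted replicate averages. The logarithm is base 2.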
row,Variant,polymerase ribozyme fitness (log ratio)
1,GACCACUCUGCCCUCAGAGCUCGAGAACAUCUUCGGAUGCAGAGGAGGCAGGCUUCGGGGGCGCGAUAGCGCCAACGUCCUCAACCUCCAAUGCAUCCCACCACAUGAUGAUGCCUGAAGAGCCUUGGUUUUUUG [A6C U59G],-0.454
2,GACCACUCUGCCCUCAGAGCUCGAGAACAUCUUCGGAUGCAGAGGAGGCAGGCUUCGGUGGCGCGAUAGCGCCAACGUCCUCAACCUCCAAUGCAUCCCACCACAUGAUGAUGCCUGAAAAGCCUUGGUUUUUUG [A6C G120A],0.157
3,GACCACUCUGCCCUCAGAGCUCGAGAACAUCUUCGGAUGCAGAGGAGGCAGGCUUCGGUGGCGCGAUAGCGCCAACGUCCUCAACCUCCAAUGCAUCCCACCACAUGAUGAUGCCUGAAUAGCCUUGGUUUUUUG [A6C G120U],0.259
4,GACCACAGUGCCAUCAGAGCUCGAGAACAUCUUCGGAUGCACAGGAGGCAGGCUUCGGUGGCGCGAUAGCGACAAGGUCCUCAACCUCCAAUGCAUCCCACCACAUGAUGAUGCCUGAAGAGCCUUGGUUUUUUG [A6C U7A C8G C13A G42C C72A C76G],-2.51
5,GACCACUCUGCCCUCAGAGCUCGAGAACAUCUUCGGAUGCAGAGGAGGCAGGCUUCGGUGGCGCGAUAUCGUCAACGUCCUCAACCUCCAAUGCAUCCCACCACAUGAUGAUGCCUGAAGAGCCUUGGUUUUUUG [A6C G69U C72U],-0.0767
6,GACCACUCGGCCCUCAGAGCUCGAGAACAUCUUCGGAUGCAGAGGACGCAGGCUUCGGUGGCACGAUAGCGCCAACGUCCUCUACCUCCAAUGCAUCCCACCACAUGAUGAUGCCUGAAUAGCCUUGGUUUUUUG [A6C U9G G47C G63A A83U G120U],-1.35
7,GACCAGUCUGCCCUCAGAGCUCGAGAACAUCUUCGGAUGCAGGGGAGGCAGGCUUCGGUGGCGCGAUAGCGCCAACGUCCUCAACCUCCAAUGCAUCCCACCACAUGAUGAUGCCUGAAGAGCCUUGGUUUUUUG [A6G A43G],-2.57
8,GACCACUCAGGCCUCAGAGCUCGAGAACAUCUUCGGAUGCAGAGGAGGCAGGCUUCGGUGGCGCGAUAGCGCCGACGUCCUCAACCUCCAAUGCAUCCCACCACAUGAUGAUGCCUGAAGAGCCUUGGUUUUUUG [A6C U9A C11G A74G],-0.26
9,GACCACUCUGCCCUCAGAGCUCGAGAACAGCUUCGGAUGCAGCGGAGGCAGGCUUCGGUGGCGCGAUAGCGCCAACGUCCUCAACCUUCAAUGCAUGCCACCACAUGAGGAUGCCUGAAGAGCCUUGGUUUUUUG [A6C U30G A43C C88U C97G U109G],-6.22
10,GACCACUCUGCCCUCAGAGCUCGAGAACAUCUUCGGAUGCAGAGGAGGCAGGCUUCGGGGGCGCGAUAGCGCCAACGUCCUCAACUUCCAAUGCAUCCCACCACAUGAUGAUUCCUGAAGAGCCUUGGUUUUUUG [A6C U59G C86U G113U],-3.51
11,GACCAGUCUGCCCUCAGAGCUCGAGAACGUCUUCGGAUGCAGAGGAGGCAGGCUUCGGUGGCGCGAUAGCGGCAACGUCCUGAACCUCAAAUGCAUCCCACCACAUGAUGAUGCCUGAACAGCCUUGGUUUUUUG [A6G A29G C72G C82G C89A G120C],-4.07
12,GACCACUCUGCCCUCAGAGCUCGAGAACAUCUUCGGAUGCAGAGGAGGCAGGCUUCGGUGGCGCGAUAGCGCCAACGUCCUCAACCUCCAAUGCAUCCCACCACAUUAUGAUGCCUGAAGAGCCUUGGUUUUUUG [A6C G107U],-4.64
13,GACCACUCUGCCCUCAGAGCUCGAGAACAUCUUCGGAUGCAGAGGAGGCAGGCUUCGGUGGCGCGAUAGCGCCAACGUCCUCAACCUCCAAUGCAUCCCACCACAUGACUAUGUCUGAAGAGCCUUGGUUUUUUG [A6C U109C G110U C114U],-6.23
14,GACCAGUCUGCCCUCAGAGCUCGAGAACUUCUUCGGGUGCAGAGGAGGCAGGCUUUGGUGGGGCGAUAGCGCCAACGUCCUCAACCGCCAAUGCAUCCCACCACCUGAUGAUGCCUCAAGAGCCUUGGUUUUUUG [A6G A29U A37G C56U C62G U87G A105C G117C],-5.41
15,GACCACUCUGCCCUCAGAGCUCGAGAACAUCUUCGGAUGCAGAGGAGGCAGGCUUCGGUGGCGCGAUAGCCCCAACGUCCUAAACCUCCAAUGCAUCCCACCACAUGAUGAAGCCUGUAGAGCCUUGGUUUUUUG [A6C G71C C82A U112A A118U],-0.912
16,GACCACUCGGCCCUCAGAGCUCGAGAACAUCUUCGGAUGCAGAGGAGGCAGGCUUCGGUGGCGCGAUAGCGCCAACCUCCUCAACCUCCAAUGCAUCCCACCACGUGAUGAUGCCUGAAGAGCCUAGGUUUUUUG [A6C U9G G77C A105G U126A],-4.13
17,GACCAGUCUGCCCUCAGAGCUCGAGAACAUCUUCGGAUGCAGGGGAGGCAGGCUUCGGUGGCGCGAUAUCGCCAACGUCCUCAACCUCCAAUGCAUCCCACCACAUGAUGAUGCCUGAAGAGCCUUGGUUUUUUG [A6G A43G G69U],-0.0956
18,GACCACUCUGCCCUCAGAGCUCGAGAACAUCUUCGGAUGCAGAGGAGGCAGGCUUCGGUGGCGCGAUAGCGCCAACGUCCUCAACCUCCAAUUCAUCCCUCCACAUGAUGAUGCCUGAAGAGCCUUGGUUUUUUG [A6C G93U A100U],-2.54
19,GACCACUCUGCCCUCAGAGCGCGAGAACAUCUUCGGAUUCAGAGGAGGCAGGCUUCGGUGGCGCGAUAGCGGCAACGUCCUCAAACUCCAAUGCAUCCCACCACAUGAUGAUGCCUGAAGAGCUUUGAUUUUAUG [A6C U21G G39U C72G C85A C124U G128A U133A],-3.4
20,GACCAGUCUGCCCUCAGAGCUCGAGAACAUCUUCGGAUGCCGAGGAGGCAGGCUUAGGUGGCGCGAUACCGCCAACGUCCUCAACCUCCAAUUCAUCCCACCACAUGAUGAUGCCUCAAGAGCCUUGGUUUUUUG [A6G A41C C56A G69C G93U G117C],-6.65
21,GACCAGUCUGCCCUCAGAGCUCGAGAACAUCUUCGGAUGCAGGGGAGGCAGGCUUCUGUGGCGCGAUAGCGCUAACGUCCACAACCUCCAAUGCAUCCCACCACAUGAUGAUGCCUGAAGAGCCUUGGUUUUUUG [A6G A43G G57U C73U U81A],-3.53
